{"source": "paper doi:10.1101/732289", "about": "(bioRxiv, 2020)", "target": "human KIX domain of CBP with saturating DUX4 9aaTAD peptide (human, UniProt Q92793;Q9UBX2)", "sequence (Q92793 587-673, one chain of several)": "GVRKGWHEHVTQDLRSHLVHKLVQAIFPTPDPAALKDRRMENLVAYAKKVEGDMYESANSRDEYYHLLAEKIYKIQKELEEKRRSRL", "assay": "MST", "data": [{"binder": "EEEYRALLEE", "note": "[DUX4 KBM peptide (E414-E423)]", "values": [{"measurement": "Kd", "result": "~1.1", "unit": "µM"}]}]}
